Reference: patent publication US20220204609A1 (SHANDONG BOAN BIOTECHNOLOGY, published 2022)
Substitutions are numbered along the chain they refer to. One block for each binder: values may come before it.

Key:
Human CD32b = target: T1, Human CD32b (human, UniProt P31994 43-217, limits assumed); assay: BLI (Octet RED 96), Human CD32b on streptavidin biosensor, steady state analysis
T1 sequence (looked up): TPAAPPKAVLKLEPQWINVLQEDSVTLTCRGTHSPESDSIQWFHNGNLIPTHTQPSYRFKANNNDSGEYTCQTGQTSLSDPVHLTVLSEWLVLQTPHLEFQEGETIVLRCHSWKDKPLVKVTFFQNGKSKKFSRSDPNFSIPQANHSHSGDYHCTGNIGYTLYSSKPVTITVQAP

[1] = target: T2, Human CD16a(F) (Sino Biological, 10389-H27H-B) (human, UniProt P08637 17-208); assay: BLI (Octet RED 96), Human CD16a(F) on streptavidin biosensor, 1:1 fit
T2 construct: Loaded on streptavidin biosensors

[2] = target: T3, Human FcRn (ACROBiosystems, FCM-H82W4) (human, UniProt P55899 24-297; P61769 21-119); assay: BLI (Octet RED 96), Human FcRn on streptavidin biosensor, steady state analysis
T3 construct: Loaded on streptavidin biosensors

[3] = target: T4, Human CD32a(H) (Sino Biological, 10374-H27H1-B) (human, UniProt P12318 34-218); assay: BLI; KD of CLDQMIX-CA808.1-IgG1 against KD of CLDQMIX-CA808.1-IgG1 VLPLL
T4 construct: Loaded on streptavidin biosensors
T4 sequence (looked up): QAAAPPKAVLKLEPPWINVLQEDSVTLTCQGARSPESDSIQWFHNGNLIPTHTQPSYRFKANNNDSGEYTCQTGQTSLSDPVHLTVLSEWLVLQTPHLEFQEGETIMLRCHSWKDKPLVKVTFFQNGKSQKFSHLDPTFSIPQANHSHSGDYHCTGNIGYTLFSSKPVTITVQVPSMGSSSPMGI

[4] = target: T5, Human CD16a(V) (Sino Biological, 10389-H27H1-B) (human, UniProt P08637 17-208); assay: as above
T5 construct: Loaded on streptavidin biosensors

[5] = target: T3, Human FcRn (ACROBiosystems, FCM-H82W4); assay: as above
[6] = target: T2, Human CD16a(F) (Sino Biological, …); assay: as above
[7] = target: T4, Human CD32a(H) (Sino Biological, …); assay: BLI (Octet RED 96), Human CD32a(H) on streptavidin biosensor, steady state analysis
[8] = target: T5, Human CD16a(V) (Sino Biological, …); assay: BLI (Octet RED 96), Human CD16a(V) on streptavidin biosensor, 1:1 fit
Claudin18.2 on cells [9] = target: T6, Claudin18.2 on cells (human, UniProt P56856-2 1-261); assay: flow cytometry on 293T-Claudin18.2 cells, antibody at 1.5 µg/mL
T6 construct: whole, on cells; the cell line of each result is named under assay or readout

Claudin18.2 on cells [10] = target: T6, Claudin18.2 on cells; assay: flow cytometry on NUGC4 cells, antibody at 1.5 µg/mL
Claudin18.2 on cells [11] = target: T6, Claudin18.2 on cells; assay: flow cytometry on 293T-Claudin18.2 cells, antibody at 3 µg/mL
Claudin18.2 on cells [12] = target: T6, Claudin18.2 on cells; assay: flow cytometry on 293T-Claudin18.2 cells, antibody at 0.375 µg/mL
Claudin18.1 on cells [13] = target: T7, Claudin18.1 on cells (human, UniProt P56856 1-261); assay: flow cytometry on 293T-Claudin18.1 cells, antibody at 1.5 µg/mL
T7 construct: whole, on cells

Claudin18.2 on cells [14] = target: T6, Claudin18.2 on cells; assay: flow cytometry on NUGC4 cells, antibody at 3 µg/mL
Claudin18.1 on cells [15] = target: T7, Claudin18.1 on cells; assay: flow cytometry on 293T-Claudin18.1 cells, antibody at 3 µg/mL
Claudin18.1 on cells [16] = target: T7, Claudin18.1 on cells; assay: flow cytometry on 293T-Claudin18.1 cells, antibody at 0.375 µg/mL
Claudin18.2 on cells [17] = target: T6, Claudin18.2 on cells; assay: cell-based or functional assay
Claudin18.2 on cells [18] = target: T6, Claudin18.2 on cells; assay: cell-based or functional assay; remark: listed apart in the source
Claudin18.1 on cells [19] = target: T7, Claudin18.1 on cells; assay: flow cytometry on 293T-Claudin18.1 cells, antibody at 0.75 µg/mL
Claudin18.2 on cells [20] = target: T6, Claudin18.2 on cells; assay: flow cytometry on NUGC4 cells, antibody at 0.75 µg/mL
Claudin18.2 on cells [21] = target: T6, Claudin18.2 on cells; assay: flow cytometry on 293T-Claudin18.2 cells, antibody at 0.75 µg/mL
Claudin18.2 on cells [22] = target: T6, Claudin18.2 on cells; assay: flow cytometry on 293T-Claudin18.2 cells, antibody at 1.5 µg/mL; remark: listed apart in the source
Claudin18.2 on cells [23] = target: T6, Claudin18.2 on cells; assay: flow cytometry on 293T-Claudin18.2 cells, antibody at 0.75 µg/mL; remark: listed apart in the source
Claudin18.2 on cells [24] = target: T6, Claudin18.2 on cells; assay: cell-based or functional assay; remark: listed apart in the source
Claudin18.2 on cells [25] = target: T6, Claudin18.2 on cells; assay: flow cytometry on 293T-Claudin18.2 cells, antibody at 3 µg/mL; remark: listed apart in the source
Claudin18.2 on cells [26] = target: T6, Claudin18.2 on cells; assay: flow cytometry on 293T-Claudin18.2 cells, antibody at 0.375 µg/mL; remark: listed apart in the source

T2 sequence (P08637 17-208 limits assumed): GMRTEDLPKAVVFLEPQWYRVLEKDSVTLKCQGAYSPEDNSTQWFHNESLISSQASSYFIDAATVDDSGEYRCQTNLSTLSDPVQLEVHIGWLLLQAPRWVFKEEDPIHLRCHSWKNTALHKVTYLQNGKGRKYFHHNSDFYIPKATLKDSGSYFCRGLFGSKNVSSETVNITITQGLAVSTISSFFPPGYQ
T5 sequence (P08637 17-208 F176V limits assumed): as the sequence (P08637 17-208 limits assumed) above, with F160V counted along it

B1: CLDQMix-CA808.1-IgG1-VLPLL (antibody)
heavy: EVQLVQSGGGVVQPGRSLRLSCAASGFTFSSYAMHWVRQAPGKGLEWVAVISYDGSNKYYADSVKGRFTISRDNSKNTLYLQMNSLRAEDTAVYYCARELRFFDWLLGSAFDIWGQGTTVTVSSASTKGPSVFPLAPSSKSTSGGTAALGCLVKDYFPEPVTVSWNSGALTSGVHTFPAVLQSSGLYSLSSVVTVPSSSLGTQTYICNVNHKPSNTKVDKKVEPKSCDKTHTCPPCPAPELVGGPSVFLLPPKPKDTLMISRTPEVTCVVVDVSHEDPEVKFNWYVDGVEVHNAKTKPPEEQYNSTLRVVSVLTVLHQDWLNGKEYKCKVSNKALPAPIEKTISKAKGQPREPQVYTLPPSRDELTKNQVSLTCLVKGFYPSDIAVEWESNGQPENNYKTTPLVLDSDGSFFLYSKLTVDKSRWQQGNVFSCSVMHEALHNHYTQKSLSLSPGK
light: DIVMTQSPSSLSASVGDRVTITCRASQGIRNDLGWYQQKPGKAPKLLIYAASSLQSGVPSRFSGSGSGTDFTLTISSLQPEDFATYYCLQDYNYPRTFGQGTKVEIKRTVAAPSVFIFPPSDEQLKSGTASVVCLLNNFYPREAKVQWKVDNALQSGNSQESVTEQDSKDSTYSLSSTLTLSKADYEKHKVYACEVTHQGLSSPVTKSFNRGEC
Kd (Human CD32b): 3000 nM
Kd [1]: 119 nM
Kd [2]: 5.27 nM
Ratio of KD [3]: 1.37
Ratio of KD [4]: 1.98
Ratio of KD [5]: 1.31
Ratio of KD [6]: 4.75
Kd [7]: 300 nM
Kd [8]: 54.1 nM

B3: CLD393-C1002-IgG1 (antibody, V domains shown)
VH: QVQLVESGGGVVQPGRSLRLSCAASGFTFSSHDMHWVRQAPGKGLEWVADISDDGSNKNYADSVKGRFTISRDNSKNTLYLQMNSLRAEDAAVYYCAREGLRWFGEFYYSYGMDVWGQGTTVTVSS
VL: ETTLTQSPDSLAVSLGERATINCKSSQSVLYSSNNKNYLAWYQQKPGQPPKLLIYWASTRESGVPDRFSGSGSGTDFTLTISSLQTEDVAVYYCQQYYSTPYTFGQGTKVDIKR
notes: Complete IgG1 made in HEK293 cells; also called CLD387-C1002-IgG1
mean fluorescence intensity (Claudin18.2 on cells [10]): 4890
mean fluorescence intensity (Claudin18.2 on cells [22]): 1.16e+06
mean fluorescence intensity (Claudin18.2 on cells [14]): 5170
mean fluorescence intensity (Claudin18.2 on cells [23]): 852000
ADCC inhibition rate, %, antibody 0.5 µg/mL, 293T-Claudin18.2 target cells, PBMC effectors, LDH (Claudin18.2 on cells [24]): 22%
ADCC inhibition rate, %, antibody 5 µg/mL, 293T-Claudin18.2 target cells, PBMC effectors, LDH (Claudin18.2 on cells [24]): 49%
ADCC inhibition rate, %, antibody 50 µg/mL, 293T-Claudin18.2 target cells, PBMC effectors, LDH (Claudin18.2 on cells [24]): 64%
mean fluorescence intensity (Claudin18.2 on cells [25]): 1.33e+06
mean fluorescence intensity (Claudin18.2 on cells [20]): 4950
mean fluorescence intensity (Claudin18.2 on cells [26]): 406000

Now from value to binder:

mean fluorescence intensity (Claudin18.2 on cells [9]): 1.2e+06
mean fluorescence intensity (Claudin18.2 on cells [10]): 138000
Kd (Human CD32b): 3200 nM
mean fluorescence intensity (Claudin18.2 on cells [11]): 1.38e+06
mean fluorescence intensity (Claudin18.2 on cells [12]): 535000
mean fluorescence intensity (Claudin18.1 on cells [13]): 28900
mean fluorescence intensity (Claudin18.2 on cells [14]): 185000
mean fluorescence intensity (Claudin18.1 on cells [15]): 47500
mean fluorescence intensity (Claudin18.1 on cells [16]): 26000
ADCC inhibition rate, %, antibody 0.1 µg/mL, 293T-Claudin18.2 target cells, PBMC effectors, LDH (Claudin18.2 on cells [17]): 39.4%
ADCC inhibition rate, %, antibody 1 µg/mL, 293T-Claudin18.2 target cells, PBMC effectors, LDH (Claudin18.2 on cells [17]): 63.6%
ADCC inhibition rate, %, antibody 10 µg/mL, 293T-Claudin18.2 target cells, PBMC effectors, LDH (Claudin18.2 on cells [17]): 57.4%
ADCC EC50 (µg/mL), NUGC4 target cells, Jurkat reporter effector cells, Bio-Glo (Claudin18.2 on cells [18]): 1.26 µg/mL
mean fluorescence intensity (Claudin18.1 on cells [19]): 29400
Kd [1]: 566 nM
Kd [2]: 6.93 nM
Kd [7]: 410 nM
mean fluorescence intensity (Claudin18.2 on cells [20]): 75600
Kd [8]: 107 nM
mean fluorescence intensity (Claudin18.2 on cells [21]): 753000
B2: CLDQMIX-CA808.1-IgG1 (antibody)
heavy: not shown
light: B1 light
notes: Complete IgG1 made in HEK293 cells from the scFv clone; also called CLDMIX-CA808.1-IgG1

mean fluorescence intensity (Claudin18.2 on cells [10]): 5640
mean fluorescence intensity (Claudin18.2 on cells [22]): 1.03e+06
mean fluorescence intensity (Claudin18.2 on cells [14]): 6140
mean fluorescence intensity (Claudin18.2 on cells [23]): 787000
ADCC inhibition rate, %, antibody 0.5 µg/mL, 293T-Claudin18.2 target cells, PBMC effectors, LDH (Claudin18.2 on cells [24]): 15%
ADCC inhibition rate, %, antibody 5 µg/mL, 293T-Claudin18.2 target cells, PBMC effectors, LDH (Claudin18.2 on cells [24]): 47%
ADCC inhibition rate, %, antibody 50 µg/mL, 293T-Claudin18.2 target cells, PBMC effectors, LDH (Claudin18.2 on cells [24]): 48%
mean fluorescence intensity (Claudin18.2 on cells [25]): 1.37e+06
mean fluorescence intensity (Claudin18.2 on cells [20]): 5210
mean fluorescence intensity (Claudin18.2 on cells [26]): 308000
B4: CLD393-C1024-IgG1 (antibody, V domains shown)
VH: B3 VH with Q1E, E6Q, H32Y
VL: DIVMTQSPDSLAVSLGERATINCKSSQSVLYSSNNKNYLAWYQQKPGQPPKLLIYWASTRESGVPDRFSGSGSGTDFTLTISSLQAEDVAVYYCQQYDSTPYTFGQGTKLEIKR
notes: Complete IgG1 made in HEK293 cells; also called CLD383-C1024-IgG1
